Read-outs that look alike come from different tables or passages of the source. Each block holds one compound with its values, some of them ahead of it. Bridge positions count the residues as written; N and C are the ends. Square brackets hold non-standard residues; d marks the D form. Peptide text beside a SMILES is read from it. * marks the point of attachment. ξ: configuration not given here. X1 = CNC(=O)c1ccccc1Sc1ccc2c(/C=C/c3ccccn3)nn(C(=O)N(CCNC(=O)[C@@H](N)CCC(=O)O)CCC(=O)*)c2c1; X3 = CNC(=O)c1ccccc1Sc1ccc2c(/C=C/c3ccccn3)nn(C(=O)N(CCOC(=O)[C@@H](N)CCC(=O)O)CCC(=O)*)c2c1; X2 = CNC(=O)c1ccccc1Sc1ccc2c(/C=C/c3ccccn3)nn(C(=O)N(CCNC(=O)CC[C@H](N)C(=O)O)CCC(=O)*)c2c1; Thr(3ξ) = CC(O)[C@H](N)C(=O)O; Dab = NCC[C@H](N)C(=O)O; ξL = CC(C)CC(N)C(=O)O
Assays:
[1] = axitinib therapy, human use; cited from earlier work
[2] = for Blood Plasma Conc. of axitinib / Blood Plasma Conc. of released axitinib / Kidney Tissue Conc. of released axitinib: mouse; for Blood Plasma Conc. of axitinib: oral gavage, single dose 30 mg/kg; for Blood Plasma Conc. of released axitinib / Kidney Tissue Conc. of released axitinib: injection, single dose 3 mg/kg; for Kidney Tissue Conc. of released axitinib: corrected for kidney tissue density; for axitinib level in kidney tissues vs from axitinib itself: 3 mg/kg compound vs 30 mg/kg oral axitinib
[3] = 14-days repeat-dose mouse tolerability test; type: in vivo; conditions: dose of at least 18 mg/kg/day
[4] = tested on: luciferase-expressing A498 renal cancer cell line (A498-luc); conditions: 12 mg/kg/day ip vs axitinib at 30 mg/kg/day
Description: An illustrative efficacy study for the compounds described herein was investigated in an orthotopic mouse model. In this model, a luciferase-expressing A498 renal cancer cell line (A498-luc) was used. The cancer cells were implanted into a kidney capsule and the tumor growth and effect were monitored by the image size using IVIS Lumina III (Perkin Elmer) and mouse body weight changes. Specifically, mice were anesthetized by SC injection of Zolet™ m 50 (Virbac S. A.) after 24 h fasting. The skin of anesthetized mice was sterilized with iodine followed by alcohol. 4×10^6 luciferase-expressing A498-luc cells were implanted in the left kidney by insulin syringe. The skin incisions were closed with autosuture clip. The tumor growths were monitored by image analysis. […] At 10 mins after the luciferin injection, the mice were imaged (once a week). Living image software (Perkin Elmer) is used to compute regions of interest (ROI) and integrate the total bioluminescence signal in each ROI. Bioluminescent signals (photos/s) from ROI were quantified and used as an indicator of tumor growth and antitumor activity. Body weight of all mice were measured twice a week throughout the study.

in vivo = conditions: mouse, 3 mg/kg; for level at 3 h: iv
Text: Preferential accumulation of compounds provided herein in kidneys (or near the site of a kidney cancer) may be evaluated by pharmacokinetic (PK) tests, such as in a standard rat PK test.

HK-2 cell line = experiment: HK-2 cytotoxicity assay; type: cell-based, human
Text: The assay is analogously to that described, for example, by Keirstead et al. in Toxicol. Sci. 2014, vol. 137, pp. 278-291.

[5] = In vitro antibacterial activity (MIC); type: cell-based; conditions: relative to polymyxin antibiotics such as polymyxin B and colistin

Blood Plasma Conc. of axitinib ([2]; T = 3 h): T = 3 h: 397.3 ng/mL
Blood Plasma Conc. of axitinib ([2]; T = 6 h): T = 6 h: 75.6 ng/mL
Blood Plasma Conc. of axitinib ([2]; T = 12 h): T = 12 h: 11.4 ng/mL
Blood Plasma Conc. of axitinib ([2]; T = 24 h): T = 24 h: BLQ^d
Structure (SMILES): CNC(=O)c1ccccc1Sc1ccc2c(/C=C/c3ccccn3)n[nH]c2c1 [Axitinib, N-methyl-2-[[3-[(E)-2-pyridin-2-ylethenyl]-1H-indazol-6-yl]sulfanyl]benzamide, reference compound]
incidence of hypertensive adverse effects [1]: 40-64%

Structure (SMILES): CNC(=O)c1ccccc1Sc1ccc2c(/C=C/c3ccccn3)nn(C(=O)N(CCNC(=O)[C@@H](N)CCC(=O)O)CCC(=O)N[C@H]3CCNC(=O)[C@H]([C@@H](C)O)NC(=O)[C@H](CCN)NC(=O)[C@H](CCN)NC(=O)C(CC(C)C)NC(=O)[C@@H](Cc4ccccc4)NC(=O)[C@H](CCN)NC3=O)c2c1 (stereo partly shown) [Example 2] (X1-[Dab][Dab][dF][ξL][Dab][Dab]T; lactam 1-C)
Blood Plasma Conc. of released axitinib ([2]; T = 3 h): T = 3 h: 3.3 ng/mL
Kidney Tissue Conc. of released axitinib ([2]; T = 3 h): T = 3 h: 5140 ng/mL
Blood Plasma Conc. of released axitinib ([2]; T = 6 h): T = 6 h: BLQ
Kidney Tissue Conc. of released axitinib ([2]; T = 6 h): T = 6 h: 4630 ng/mL

Structure (SMILES): CNC(=O)c1ccccc1Sc1ccc2c(/C=C/c3ccccn3)nn(C(=O)N(CCNC(=O)[C@@H](N)CCC(=O)O)CCC(=O)N[C@H](C(=O)N[C@@H](CCN)C(=O)N[C@H]3CCNC(=O)[C@H](C(C)O)NC(=O)[C@H](CCN)NC(=O)[C@H](CCN)NC(=O)[C@H](CC(C)C)NC(=O)[C@@H](Cc4ccccc4)NC(=O)[C@H](CCN)NC3=O)C(C)O)c2c1 (stereo partly shown) [Example 1] (X1-[Thr(3ξ)][Dab][Dab][Dab][dF]L[Dab][Dab][Thr(3ξ)]; lactam 3-C)
tolerability [3]: well-tolerated
body weight change (loss in weight) during efficacy study [4]: minimized loss in weight
axitinib level in kidney tissues vs from axitinib itself ([2]; at 3 h): 6.50 fold
axitinib level in kidney tissues vs from axitinib itself ([2]; at 6 h): about 15 fold
Blood Plasma Conc. of released axitinib ([2]; T = 3 h): T = 3 h: 9.7 ng/mL
Kidney Tissue Conc. of released axitinib ([2]; T = 3 h): T = 3 h: 1955.3 ng/mL
Blood Plasma Conc. of released axitinib ([2]; T = 6 h): T = 6 h: 4.0 ng/mL
Kidney Tissue Conc. of released axitinib ([2]; T = 6 h): T = 6 h: 1448.5 ng/mL
Blood Plasma Conc. of released axitinib ([2]; T = 12 h): T = 12 h: BLQ
Kidney Tissue Conc. of released axitinib ([2]; T = 12 h): T = 12 h: 1437.9 ng/mL
Blood Plasma Conc. of released axitinib ([2]; T = 24 h): T = 24 h: BLQ
Kidney-to-Blood Conc. Ratio (in vivo; T = 3 h after injection): 63
level at 3 h (in vivo; kidney): 563 ng/mL
level at 3 h (in vivo; plasma): 9 ng/mL
In vitro human HK-2 assay IC50 (HK-2 cell line; HK-2 immortalized proximal tubule cells from normal human kidney): >100 µg/mL
fold less active than axitinib in HK-2 cytotoxicity assay (HK-2 cell line; vs axitinib (free drug form)): 2-3 fold
antibacterial activity (MIC, minimum inhibitory concentration) [5]: minimized antibacterial activity

Structure (SMILES): CNC(=O)c1ccccc1Sc1ccc2c(/C=C/c3ccccn3)nn(C(=O)N(CCNC(=O)CC[C@H](N)C(=O)O)CCC(=O)N[C@H](C(=O)N[C@@H](CCN)C(=O)N[C@H]3CCNC(=O)[C@H]([C@@H](C)O)NC(=O)[C@H](CCN)NC(=O)[C@H](CCN)NC(=O)[C@H](CC(C)C)NC(=O)[C@@H](Cc4ccccc4)NC(=O)[C@H](CCN)NC3=O)[C@@H](C)O)c2c1 [Example 9, reference compound] (X2-T[Dab][Dab][Dab][dF]L[Dab][Dab]T; lactam 3-C)
Blood Plasma Conc. of released axitinib ([2]; T = 3 h): T = 3 h: 14.9 ng/mL
Kidney Tissue Conc. of released axitinib ([2]; T = 3 h): T = 3 h: 371.6 ng/mL
Blood Plasma Conc. of released axitinib ([2]; T = 6 h): T = 6 h: BLQ
Kidney Tissue Conc. of released axitinib ([2]; T = 6 h): T = 6 h: 28.8 ng/mL

Structure (SMILES): CNC(=O)c1ccccc1Sc1ccc2c(/C=C/c3ccccn3)nn(C(=O)N(CCOC(=O)[C@@H](N)CCC(=O)O)CCC(=O)N[C@H]3CCNC(=O)[C@H]([C@@H](C)O)NC(=O)[C@H](CCN)NC(=O)[C@H](CCN)NC(=O)C(CC(C)C)NC(=O)[C@@H](Cc4ccccc4)NC(=O)[C@H](CCN)NC3=O)c2c1 (stereo partly shown) [Example 7] (X3-[Dab][Dab][dF][ξL][Dab][Dab]T; lactam 1-C)
Blood Plasma Conc. of released axitinib ([2]; T = 3 h): T = 3 h: 14.5 ng/mL
Kidney Tissue Conc. of released axitinib ([2]; T = 3 h): T = 3 h: 4280 ng/mL
Blood Plasma Conc. of released axitinib ([2]; T = 6 h): T = 6 h: BLQ
Kidney Tissue Conc. of released axitinib ([2]; T = 6 h): T = 6 h: 4860 ng/mL

Reference: patent publication US20240376155A1, “NOVEL COMPOUNDS AND COMPOSITIONS FOR TARGETED THERAPY OF RENAL CANCERS” (SHANGHAI MICURX PHARMACEUTICAL CO., LTD., priority 2021, published 2024)
